Results on one variant are retold here after article PMC2670979.

B1: GST-Miro1 WT [not stated] / KIF5C [modified: 35S-methionine label; 35S-methionine label] [not stated] (parent)
chain 1: MKKDVRILLVGEPRVGKTSLIMSLVSEEFPEEVPPRAEEITIPADVTPERVPTHIVDYSEAEQSDEQLHQEISQANVICIVYAVNNKHSIDKVTSRWIPLINERTDKDSRLPLILVGNKSDLVEYSSMETILPIMNQYTEIETCVECSAKNLKNISELFYYAQKAVLHPTGPLYCPEEKEMKPACIKALTRIFKISDQDNDGTLNDAELNFFQRICFNTPLAPQALEDVKNVVRKHISDGVADSGLTLKGFLFLHTLFIQRGRHETTWTVLRRFGYDDDLDLTPEYLFPLLKIPPDCTTELNHHAYLFLQSTFDKHDLDRDCALSPDELKDLFKVFPYIPWGPDVNNTVCTNERGWITYQGFLSQWTLTTYLDVQRCLEYLGYLGYSILTEQESQASAVTVTRDKKIDLQKKQTQRNVFRCNVIGVKNCGKSGVLQALLGRNLMRQKKIREDHKSYYAINTVYVYGQEKYLLLHDISESEFLTEAEIICDVVCLVYDVSNPKSFEYCARIFKQHFMDSRIPCLIVAAKSDLHEVKQEYSISPTDFCRKHKMPPPQAFTCNTADAPSKDIFVKLTTMAMYPHVTQADLKSSTFWLRASFGATVFAVLGFAMYKALLKQR
chain 2: MADPAECSIKVMCRFRPLNEAEILRGDKFIPKFKGDETVVIGQGKPYVFDRVLPPNTTQEQVYNACAKQIVKDVLEGYNGTIFAYGQTSSGKTHTMEGKLHDPQLMGIIPRIAHDIFDHIYSMDENLEFHIKVSYFEIYLDKIRDLLDVSKTNLAVHEDKNRVPYVKGCTERFVSSPEEVMDVIDEGKANRHVAVTNMNEHSSRSHSIFLINIKQENVETEKKLSGKLYLVDLAGSEKVSKTGAEGAVLDEAKNINKSLSALGNVISALAEGTKTHVPYRDSKMTRILQDSLGGNCRTTIVICCSPSVFNEAETKSTLMFGQRAKTIKNTVSVNLELTAEEWKKKYEKEKEKNKTLKNVIQHLEMELNRWRNGEAVPEDEQISAKDQKNLEPCDNTPIIDNIAPVVAGISTEEKEKYDEEISSLYRQLDDKDDEINQQSQLAEKLKQQMLDQDELLASTRRDYEKIQEELTRLQIENEAAKDEVKEVLQALEELAVNYDQKSQEVEDKTRANEQLTDELAQKTTTLTTTQRELSQLQELSNHQKKRATEILNLLLKDLGEIGGIIGTNDVKTLADVNGVIEEEFTMARLYISKMKSEVKSLVNRSKQLESAQMDSNRKMNASERELAACQLLISQHEAKIKSLTDYMQNMEQKRRQLEESQDSLSEELAKLRAQEKMHEVSFQDKEKEHLTRLQDAEEMKKALEQQMESHREAHQKQLSRLRDEIEEKQKIIDEIRDLNQKLQLEQEKLSSDYNKLKIEDQEREMKLEKLLLLNDKREQAREDLKGLEETVSRELQTLHNLRKLFVQDLTTRVKKSVELDNDDGGGSAAQKQKISFLENNLEQLTKVHKQLVRDNADLRCELPKLEKRLRATAERVKALESALKEAKENAMRDRKRYQQEVDRIKEAVRAKNMARRAHSAQIAKPIRPGHYPASSPTAVHAIRGGGGSSSNSTHYQK

This assay covers variants of B1. The assay is described as follows: GST pull-down of in vitro translated 35S-labeled protein. The note with it: with KIF5C [modified: 35S-methionine label, 2 mM Ca2+, normalized to 100 at 0 mM Ca2+, parent: 70, read off a plot.
As to chain 1 E208K E328K, the screen value is 98.
